The target of assay [1] is PF4全抗原 (血小板因子4, platelet factor 4) (Homo sapiens (Human)) (UniProt P02776). The assay is described as follows: chemiluminescent ELISA, antigen coated at 2ug/ml, 2ul antibody, HRP goat anti-mouse IgG, luminol (blank 3280). Background: In an ELISA, binding on a coated surface is turned into a signal by an enzyme label.
For assay [2] the target is unchanged. In words: chemiluminescent ELISA, antigen coated at 2ug/ml, 10ul antibody, HRP goat anti-mouse IgG, luminol (blank 3280).
For assay [3] the target is unchanged. The assay is described as follows: chemiluminescent ELISA, antigen coated at 2ug/ml, 50ul antibody, HRP goat anti-mouse IgG, luminol (blank 3280).

Chain of UniProt P02776 (P02776 32-101 limits assumed): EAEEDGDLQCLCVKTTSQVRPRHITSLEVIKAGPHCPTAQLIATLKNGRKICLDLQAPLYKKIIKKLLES

B1: 单克隆抗体AntiPF4_N (杂交瘤来源, 实施例1) (antibody, V domains shown)
VH: EVKLEESGGGLVQPGGSMKLSCVASGFTFSNYWMNWVRQSPEKGLEWVAEIRLKSNNYATHYAESVKGRFTISRDDSKSSVYLQMNNLRAEDTGIYYCTGYDFDYWGQGTTLTVSS
VL: DVVMTQTPLSLPVSLGDQASISCRSSQSLVHNYGNTFLHWYLQKPGQSPKLLIYSTSNLFSGVPDRFSGSGSGTDFTLKISRVEAEDLGVYFCSQSTHVPPTFGGGTKLEI
For the molecule B1, the results for the 发光值 in assay [1], in assay [2] and in assay [3] were 63000, 256000 and 994000, respectively.

Source of the values: patent CN111793131A.
